Source: doi:10.1101/2024.02.25.581584 (bioRxiv, 2024)

Assays:
[1] = biological target: T1, CENP-T^6D (CENP-T^6D-GFP-Spy-tag) (human, UniProt Q96BT3 1-242, T11D | T27D | S47D | T85D | T195D | S201D); assay: TIRF microscopy of clusters
CENP-T^2D [2] = biological target: T2, CENP-T^2D (human, UniProt Q96BT3 1-242, T11D | T85D); assay: TIRF microscopy of clusters
CENP-T^site1 [3] = biological target: T3, CENP-T^site1 (human, UniProt Q96BT3 1-242, T11D | deletion of amino acids from 76 to 106); assay: TIRF microscopy of single molecules
[4] = biological target: T1, CENP-T^6D (CENP-T^6D-GFP-Spy-tag); assay: TIRF microscopy of single molecules
CENP-T^site1 [5] = biological target: T3, CENP-T^site1; assay: TIRF microscopy of single molecules; remark: listed apart in the source
CENP-T^site2 = CENP-T^site2 (human, UniProt Q96BT3 1-242, T85D | deletion of amino acids from 2 to 30); assay: TIRF microscopy of single molecules
CENP-T^2D [6] = biological target: T2, CENP-T^2D; assay: fluorescence correlation spectroscopy

B1: Human Bonsai Ndc80 complex with C-terminal GFP (complex)
chain 1: MKRSSVSSGGAGRLSMQELRSQDVNKQGLYTPQTKEKPTFGKLSINKPTSERKVSLFGKRTSGHGSRNSQLGIFSSSEKIKDPRPLNDKAFIQQCIRQLCEFLTENGYAHNVSMKSLQAPSVKDFLKIFTFLYGFLCPSYELPDTKFEEEVPRIFKDLGYPFALSKSSMYTVGAPHTWPHIVAALVWLIDCIKIHTAMKESSPLFDDGQPWGEETEDGIMHNKLFLDYTIKCYESFMSGADSFDEMNAELQSKLKDLFNVDAFKLESLEAKNRALNEQIARLEQERSTANKANAERLKRLQKSADLYKDRLGLEIRKIYGEKLQFIFTNIDPKNPESPFMFSLHLNEARDYEVSDSAPHLEGLAEFQENVRKTNNFSAFLANVRKAFTATVYN
chain 2: METLSFPRYNVAEIVIHIRNKILTGADGKNLTKNDLYPNPKPEVLHMIYMRALQIVYGIRLEHFYMMPVNSEVMYPHLMEGFLPFSNLVTHLDSFLPICRVNDFETADILCPKAKRTSRFLSGIINFIHFREACRETYMEFLWQYKSSADKMQQLNAAHQEALMKLERLEKEVDEDTTVTIPSAVYVAQLYHQVSKIEWDYECEPGMVKGIHHGPSVAQPIHLDSTQLSRKFISDYLWSLVDTEW
For B1, the “stoichiometry N” value [1] was ≤ 2 Ndc80 molecules per CENP-T, the binding result (CENP-T^2D [2]) was “binds” and the “fold reduction of kon of site 1 against CENP-T^2D and CENP-T^6D (model fit)” value (CENP-T^site1 [3]) was 8 fold. The “stoichiometry N” value [4] was ~2 Ndc80 molecules per CENP-T, the “stoichiometry N” value (CENP-T^site1 [5]) was ~1 Ndc80 molecules per CENP-T and the “stoichiometry N” value (CENP-T^site2) was ~1 Ndc80 molecules per CENP-T.

B2: Human Bonsai Ndc80 complex, untagged (complex)
chain 1: B1 chain 1
chain 2: B1 chain 2
B2: binds (CENP-T^2D [6]).
